The record followed here is patent US8460910B2 (Illumina Cambridge Limited, priority 2003, dated 2013).

For this data set, the system named is 3′ modified nucleotide. Description: Gel-based incorporation assay of Example 2, two cycles of enzymology on bead-bound 32P-labelled DNA template. In kind it is biochemical. The procedure: The mutant polymerases were assessed for their ability to incorporate a 3′ blocked nucleotide analogue using a gel-based assay as described in generic form in Example 1. The rates of incorporation of the modified nucleotides were compared to purified forms of related DNA polymerases in both a single round of incorporation and through two rounds of nucleotide incorporation. The DNA template that was used for these experiments was a commercially-synthesised biotinylated oligonucleotide.
The method for two cycles of incorporation involves the binding of the DNA primer-template to streptavidin-coated beads (Dynalbeads). These are prepared as follows: • Resuspend beads in storage pot by pipetting up and down Take 20 μL beads • Wash 3×200 μL TE buffer (10 mM Tris HCl pH 7.5, 1 mM EDTA) Add 50 μL B&W buffer (5 mM Tris HCl, pH 7.5; 1M NaCl, […]) • 25 μL H2O • 25 μL of ^32P-labelled biotin DNA template (final concentration of 100 nM)
The first cycle of enzymatic incorporation is performed on these beads as follows:
Incorporation mix 1 is added to the bead pellet from above.
Reactions are incubated at 45° C. for 15 minutes
The first cycle of enzymology is then deblocked by treatment with tri(carboxyethyl) phosphine (TCEP) as follows:
Add 65 μL TCEP (100 mM) in water and incubate at 65° C. for 15 minutes
After removal of the TE buffer, a second cycle of enzymatic incorporation is then performed by the addition of incorporation mix 2, as follows:
Take 5 μL samples out at ½, 1, 2, 4, 10, 30, 60 mins and add to gel loading buffer with EDTA.
Heat all samples to 95° C. for 10 mins and load 3 μl on a 12% acrylamide gel (Sambrook and Russell, 2001).
Time (mins) to 50% product conversion on second cycle of enzymology at 45° C., 50 mM Tris, pH 8, 4 mM MgSO4, 0.05 (v/v) Tween, 50 μg/ml enzyme, and 2 μM 3′ modified nucleotide. Time to 50% product conversion on first cycle of incorporation shown in parentheses. For other mutants the time to 50% conversion on the first cycle was not measured in these experiments

[1] abbreviates: 45° C., 50 mM Tris, pH 8, 4 mM MgSO4, 0.05 (v/v) Tween, 50 μg/ml enzyme, 2 μM 3′ modified nucleotide.

B1: YAS: 9° N polymerase mutant, motif A region YAS, also A485L; SEQ ID NO: 20 (protein)
chain: MILDTDYITENGKPVIRVFKKENGEFKIEYDRTFEPYFYALLKDDSAIEDVKKVTAKRHGTVVKVKRAEKVQKKFLGRPIEVWKLYFNHPQDVPAIRDRIRAHPAVVDIYEYDIPFAKRYLIDKGLIPMEGDEELTMLAFAIATLYHEGEEFGTGPILMISYADGSEARVITWKKIDLPYVDVVSTEKEMIKRFLRVVREKDPDVLITYNGDNFDFAYLKKRCEELGIKFTLGRDGSEPKIQRMGDRFAVEVKGRIHFDLYPVIRRTINLPTYTLEAVYEAVFGKPKEKVYAEEIAQAWESGEGLERVARYSMEDAKVTYELGREFFPMEAQLSRLIGQSLWDVSRSSTGNLVEWFLLRKAYKRNELAPNKPDERELARRRGGYAGGYVKEPERGLWDNIVYLDFRSYASSIIITHNVSPDTLNREGCKEYDVAPEVGHKFCKDFPGFIPSLLGDLLEERQKIKRKMKATVDPLEKKLLDYRQRLIKILANSFYGYYGYAKARWYCKECAESVTAWGREYIEMVIRELEEKFGFKVLYADTDGLHATIPGADAETVKKKAKEFLKYINPKLPGLLELEYEGFYVRGFFVTKKKYAVIDEEGKITTRGLEIVRRDWSEIAKETQARVLEAILKHGDVEEAVRIVKEVTEKLSKYEVPPEKLVIHEQITRDLRDYKATGPHVAVAKRLAARGVKIRPGTVISYIVLKGSGRIGDRAIPADEFDPTKHRYDAEYYIENQVLPAVERILKAFGYRKEDLRYQKTKQVGLGAWLKVKGKK
modifications: 9oN polymerase variant (exo-) with L408Y/Y409A/P410S mutations
Consider B1, for which the “Time (mins) to 50% product conversion on second cycle of enzymology” value under setting [1] is on record as 1.5 min. Further, the “incorporation of 3′ modified nucleotide analogues compared to 9° N DM (Y409V/A485L)” value (region A variants, conditions of Example 2) is “best incorporation rate”.

B2: 9° N DM: 9° N (-exo) Y409V/A485L double mutant control polymerase; SEQ ID NO: 15 (protein)
chain: MILDTDYITENGKPVIRVFKKENGEFKIEYDRTFEPYFYALLKDDSAIEDVKKVTAKRHGTVVKVKRAEKVQKKFLGRPIEVWKLYFNHPQDVPAIRDRIRAHPAVVDIYEYDIPFAKRYLIDKGLIPMEGDEELTMLAFAIATLYHEGEEFGTGPILMISYADGSEARVITWKKIDLPYVDVVSTEKEMIKRFLRVVREKDPDVLITYNGDNFDFAYLKKRCEELGIKFTLGRDGSEPKIQRMGDRFAVEVKGRIHFDLYPVIRRTINLPTYTLEAVYEAVFGKPKEKVYAEEIAQAWESGEGLERVARYSMEDAKVTYELGREFFPMEAQLSRLIGQSLWDVSRSSTGNLVEWFLLRKAYKRNELAPNKPDERELARRRGGYAGGYVKEPERGLWDNIVYLDFRSLVPSIIITHNVSPDTLNREGCKEYDVAPEVGHKFCKDFPGFIPSLLGDLLEERQKIKRKMKATVDPLEKKLLDYRQRLIKILANSFYGYYGYAKARWYCKECAESVTAWGREYIEMVIRELEEKFGFKVLYADTDGLHATIPGADAETVKKKAKEFLKYINPKLPGLLELEYEGFYVRGFFVTKKKYAVIDEEGKITTRGLEIVRRDWSEIAKETQARVLEAILKHGDVEEAVRIVKEVTEKLSKYEVPPEKLVIHEQITRDLRDYKATGPHVAVAKRLAARGVKIRPGTVISYIVLKGSGRIGDRAIPADEFDPTKHRYDAEYYIENQVLPAVERILKAFGYRKEDLRYQKTKQVGLGAWLKVKGKK
modifications: 9oN polymerase (exo-) with Y409V and A485L mutations
For B2, the “Time to 50% product conversion on first cycle of incorporation” value (45° C., 50 mM Tris, pH 8, 4 mM MgSO4, 0.05 (v/v) Tween, 50 μg/ml enzyme, 2 μM 3′ modified nucleotide, first cycle (in parentheses)) was “no product conversion under these”. Moreover, the “Time (mins) to 50% product conversion on second cycle of enzymology” value under setting [1] is on record as “no product conversion under these”.

B3: CAA: 9° N DM-derived polymerase with amino acids 408-410 CAA (protein, UniProt Q56366 1-775, looked up, variant D141A E143A L408C Y409A P410A A485L)
DNA polymerase: MILDTDYITENGKPVIRVFKKENGEFKIEYDRTFEPYFYALLKDDSAIEDVKKVTAKRHGTVVKVKRAEKVQKKFLGRPIEVWKLYFNHPQDVPAIRDRIRAHPAVVDIYEYDIPFAKRYLIDKGLIPMEGDEELTMLAFAIATLYHEGEEFGTGPILMISYADGSEARVITWKKIDLPYVDVVSTEKEMIKRFLRVVREKDPDVLITYNGDNFDFAYLKKRCEELGIKFTLGRDGSEPKIQRMGDRFAVEVKGRIHFDLYPVIRRTINLPTYTLEAVYEAVFGKPKEKVYAEEIAQAWESGEGLERVARYSMEDAKVTYELGREFFPMEAQLSRLIGQSLWDVSRSSTGNLVEWFLLRKAYKRNELAPNKPDERELARRRGGYAGGYVKEPERGLWDNIVYLDFRSCAASIIITHNVSPDTLNREGCKEYDVAPEVGHKFCKDFPGFIPSLLGDLLEERQKIKRKMKATVDPLEKKLLDYRQRLIKILANSFYGYYGYAKARWYCKECAESVTAWGREYIEMVIRELEEKFGFKVLYADTDGLHATIPGADAETVKKKAKEFLKYINPKLPGLLELEYEGFYVRGFFVTKKKYAVIDEEGKITTRGLEIVRRDWSEIAKETQARVLEAILKHGDVEEAVRIVKEVTEKLSKYEVPPEKLVIHEQITRDLRDYKATGPHVAVAKRLAARGVKIRPGTVISYIVLKGSGRIGDRAIPADEFDPTKHRYDAEYYIENQVLPAVERILKAFGYRKEDLRYQKTKQVGLGAWLKVKGKK
Consider B3, for which the “Time (mins) to 50% product conversion on second cycle of enzymology” value under setting [1] is given as 15 min.

B4: FAP: 9° N DM-derived polymerase with amino acids 408-410 FAP (protein, UniProt Q56366 1-775, looked up, variant D141A E143A L408F Y409A A485L)
DNA polymerase: MILDTDYITENGKPVIRVFKKENGEFKIEYDRTFEPYFYALLKDDSAIEDVKKVTAKRHGTVVKVKRAEKVQKKFLGRPIEVWKLYFNHPQDVPAIRDRIRAHPAVVDIYEYDIPFAKRYLIDKGLIPMEGDEELTMLAFAIATLYHEGEEFGTGPILMISYADGSEARVITWKKIDLPYVDVVSTEKEMIKRFLRVVREKDPDVLITYNGDNFDFAYLKKRCEELGIKFTLGRDGSEPKIQRMGDRFAVEVKGRIHFDLYPVIRRTINLPTYTLEAVYEAVFGKPKEKVYAEEIAQAWESGEGLERVARYSMEDAKVTYELGREFFPMEAQLSRLIGQSLWDVSRSSTGNLVEWFLLRKAYKRNELAPNKPDERELARRRGGYAGGYVKEPERGLWDNIVYLDFRSFAPSIIITHNVSPDTLNREGCKEYDVAPEVGHKFCKDFPGFIPSLLGDLLEERQKIKRKMKATVDPLEKKLLDYRQRLIKILANSFYGYYGYAKARWYCKECAESVTAWGREYIEMVIRELEEKFGFKVLYADTDGLHATIPGADAETVKKKAKEFLKYINPKLPGLLELEYEGFYVRGFFVTKKKYAVIDEEGKITTRGLEIVRRDWSEIAKETQARVLEAILKHGDVEEAVRIVKEVTEKLSKYEVPPEKLVIHEQITRDLRDYKATGPHVAVAKRLAARGVKIRPGTVISYIVLKGSGRIGDRAIPADEFDPTKHRYDAEYYIENQVLPAVERILKAFGYRKEDLRYQKTKQVGLGAWLKVKGKK
As for B4, the “Time (mins) to 50% product conversion on second cycle of enzymology” value under setting [1] was 5.5 min.
